B1: U3 small nucleolar RNA-associated protein 14 homolog C (Homo sapiens), Q5TAP6 (parent)
chain: MNVNQVAENLALSHQEELVDLPKNYPLSENEDEGDSDGERKHQKLLEAIISLDGKNRRKLAERSEASLKVSEFSVSSEGSGEKLGLADLLEPVKTSSSLATVKKQLNRVKSKKVVELPLNKEKIEQIHREVAFSKTSQVLSKWDPIILKNQQAEQLVFPLGKEQPAIAPIEHALSGWKARTPLEQEIFNLLHKNKQPVTDPLLTPMEKASLQAMSLEEAKMHRAELQRARALQSYYEAKARKEKKIKSKKYHKVVKKGKAKKALKEFEQLQKVNPTVALEEMEKIENARMMERMSLKHQNSGKWAKSKAIMAKYDLEARQAMQEQLAKNKELTQKLQVASESEEEEGGTEVEELLVPHVANEVQMNVDGPNPWMFRSCTSDTKEAATQEDPEQVPELAAHEVSASEAEERPVAEEEILLREFEERQSLRKRSELNQDAEPASSQETKDSSSQEVLSELRALSQKLKEKHQSRKQKASSEGTVPQVQREEPAPEEAEPLLLQRSERVQTLEELEELGKEDCFQNKELPRPVLEGQQSERTPNNRPDAPKEKKEKEQLINLQNFLTTQSPSVRSLAVPTIIEELEDEEERDQRQMIKEAFAGDDVIRDFLKEKREAVEASKPKDVDLTLPGWGEWGGVGLKPSAKKRRQFLIKAPEGPPRKDKNLPNVIISEKRNIHAAAHQVQVLPYPFTHHRQFERTIQTPIGSTWNTQRAFQKLTTPKVVTKPGHIIKPIKAEDVGYQSSSRSDLPVIQRNPKRITTRHNKEEKL
partner: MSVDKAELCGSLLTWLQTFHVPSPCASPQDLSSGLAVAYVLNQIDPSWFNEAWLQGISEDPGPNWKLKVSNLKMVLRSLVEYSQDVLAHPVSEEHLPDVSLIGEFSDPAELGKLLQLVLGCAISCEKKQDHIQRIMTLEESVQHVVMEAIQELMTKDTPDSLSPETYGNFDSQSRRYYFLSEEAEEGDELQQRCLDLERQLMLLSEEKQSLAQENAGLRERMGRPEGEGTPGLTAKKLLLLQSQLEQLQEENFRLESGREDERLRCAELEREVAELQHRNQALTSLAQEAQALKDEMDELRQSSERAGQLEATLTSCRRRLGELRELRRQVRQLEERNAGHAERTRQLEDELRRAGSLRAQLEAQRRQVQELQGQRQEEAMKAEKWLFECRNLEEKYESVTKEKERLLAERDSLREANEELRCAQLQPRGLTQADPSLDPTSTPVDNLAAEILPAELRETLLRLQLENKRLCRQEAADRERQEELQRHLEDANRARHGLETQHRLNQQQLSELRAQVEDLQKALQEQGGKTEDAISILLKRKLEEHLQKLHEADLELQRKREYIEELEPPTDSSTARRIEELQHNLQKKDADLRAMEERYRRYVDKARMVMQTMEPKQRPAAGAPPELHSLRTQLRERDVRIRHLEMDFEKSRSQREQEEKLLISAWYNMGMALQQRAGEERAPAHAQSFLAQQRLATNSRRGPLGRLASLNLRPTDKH
B2: Notch homolog 2 N-terminal-like protein A (Homo sapiens), Q7Z3S9 (parent)
chain: MCVTYHNGTGYCKCPEGFLGEYCQHRDPCEKNRCQNGGTCVAQAMLGKATCRCASGFTGEDCQYSTSHPCFVSRPCLNGGTCHMLSRDTYECTCQVGFTGKECQWTDACLSHPCANGSTCTTVANQFSCKCLTGFTGQKCETDVNECDIPGHCQHGGTCLNLPGSYQCQCLQGFTGQYCDSLYVPCAPSPCVNGGTCRQTGDFTFECNCLPETVRRGTELWERDREVWNGKEHDEN
partner: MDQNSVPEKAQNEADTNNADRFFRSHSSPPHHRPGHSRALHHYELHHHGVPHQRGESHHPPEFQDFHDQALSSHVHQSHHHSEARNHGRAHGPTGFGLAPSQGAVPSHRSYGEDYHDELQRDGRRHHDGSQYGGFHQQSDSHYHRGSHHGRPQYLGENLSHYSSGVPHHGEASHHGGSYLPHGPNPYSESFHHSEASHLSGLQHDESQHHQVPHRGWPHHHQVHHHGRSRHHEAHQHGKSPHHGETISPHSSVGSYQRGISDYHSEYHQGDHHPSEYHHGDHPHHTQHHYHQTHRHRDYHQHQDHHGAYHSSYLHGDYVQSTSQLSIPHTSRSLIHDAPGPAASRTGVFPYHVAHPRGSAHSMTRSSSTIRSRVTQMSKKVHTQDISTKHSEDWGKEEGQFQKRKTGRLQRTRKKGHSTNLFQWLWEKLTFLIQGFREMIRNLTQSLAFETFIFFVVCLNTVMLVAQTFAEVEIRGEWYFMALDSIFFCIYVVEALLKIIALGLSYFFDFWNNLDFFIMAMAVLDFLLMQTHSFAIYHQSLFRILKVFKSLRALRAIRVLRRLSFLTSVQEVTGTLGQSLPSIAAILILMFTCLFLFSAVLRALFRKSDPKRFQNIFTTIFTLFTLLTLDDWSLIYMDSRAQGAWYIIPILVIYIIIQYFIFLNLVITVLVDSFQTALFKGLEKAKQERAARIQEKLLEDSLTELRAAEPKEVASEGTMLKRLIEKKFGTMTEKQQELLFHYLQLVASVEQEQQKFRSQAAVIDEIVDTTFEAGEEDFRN
B3: Nebulette (Homo sapiens), O76041 (parent)
chain: MRVPVFEDIKDETEEEKIGEEENEEDQVFYKPVIEDLSMELARKCTELISDIRYKEEFKKSKDKCTFVTDSPMLNHVKNIGAFISEAKYKGTIKADLSNSLYKRMPATIDSVFAGEVTQLQSEVAYKQKHDAAKGFSDYAHMKEPPEVKHAMEVNKHQSNISYRKDVQDTHTYSAELDRPDIKMATQISKIISNAEYKKGQGIMNKEPAVIGRPDFEHAVEASKLSSQIKYKEKFDNEMKDKKHHYNPLESASFRQNQLAATLASNVKYKKDIQNMHDPVSDLPNLLFLDHVLKASKMLSGREYKKLFEENKGMYHFDADAVEHLHHKGNAVLQSQVKYKEEYEKNKGKPMLEFVETPSYQASKEAQKMQSEKVYKEDFEKEIKGRSSLDLDKTPEFLHVKYITNLLREKEYKKDLENEIKGKGMELNSEVLDIQRAKRASEMASEKEYKKDLESIIKGKGMQAGTDTLEMQHAKKAAEIASEKDYKRDLETEIKGKGMQVSTDTLDVQRAKKASEMASQKQYKKDLENEIKGKGMQVSMDIPDILRAKRTSEIYSQRKYKDEAEKMLSNYSTIADTPEIQRIKTTQQNISAVFYKKEVGAGTAVKDSPEIERVKKNQQNISSVKYKEEIKHATAISDPPELKRVKENQKNISNLQYKEQNYKATPVSMTPEIERVRRNQEQLSAVKYKGELQRGTAISDPPELKRAKENQKNISNVYYRGQLGRATTLSVTPEMERVKKNQENISSVKYTQDHKQMKGRPSLILDTPAMRHVKEAQNHISMVKYHEDFEKTKGRGFTPVVDDPVTERVRKNTQVVSDAAYKGVHPHIVEMDRRPGIIVDLKVWRTDPGSIFDLDPLEDNIQSRSLHMLSEKASHYRRHWSRSHSSSTFGTGLGDDRSEISEIYPSFSCCSEVTRPSDEGAPVLPGAYQQSHSQGYGYMHQTSVSSMRSMQHSPNLRTYRAMYDYSAQDEDEVSFRDGDYIVNVQPIDDGWMYGTVQRTGRTGMLPANYIEFVN
partner: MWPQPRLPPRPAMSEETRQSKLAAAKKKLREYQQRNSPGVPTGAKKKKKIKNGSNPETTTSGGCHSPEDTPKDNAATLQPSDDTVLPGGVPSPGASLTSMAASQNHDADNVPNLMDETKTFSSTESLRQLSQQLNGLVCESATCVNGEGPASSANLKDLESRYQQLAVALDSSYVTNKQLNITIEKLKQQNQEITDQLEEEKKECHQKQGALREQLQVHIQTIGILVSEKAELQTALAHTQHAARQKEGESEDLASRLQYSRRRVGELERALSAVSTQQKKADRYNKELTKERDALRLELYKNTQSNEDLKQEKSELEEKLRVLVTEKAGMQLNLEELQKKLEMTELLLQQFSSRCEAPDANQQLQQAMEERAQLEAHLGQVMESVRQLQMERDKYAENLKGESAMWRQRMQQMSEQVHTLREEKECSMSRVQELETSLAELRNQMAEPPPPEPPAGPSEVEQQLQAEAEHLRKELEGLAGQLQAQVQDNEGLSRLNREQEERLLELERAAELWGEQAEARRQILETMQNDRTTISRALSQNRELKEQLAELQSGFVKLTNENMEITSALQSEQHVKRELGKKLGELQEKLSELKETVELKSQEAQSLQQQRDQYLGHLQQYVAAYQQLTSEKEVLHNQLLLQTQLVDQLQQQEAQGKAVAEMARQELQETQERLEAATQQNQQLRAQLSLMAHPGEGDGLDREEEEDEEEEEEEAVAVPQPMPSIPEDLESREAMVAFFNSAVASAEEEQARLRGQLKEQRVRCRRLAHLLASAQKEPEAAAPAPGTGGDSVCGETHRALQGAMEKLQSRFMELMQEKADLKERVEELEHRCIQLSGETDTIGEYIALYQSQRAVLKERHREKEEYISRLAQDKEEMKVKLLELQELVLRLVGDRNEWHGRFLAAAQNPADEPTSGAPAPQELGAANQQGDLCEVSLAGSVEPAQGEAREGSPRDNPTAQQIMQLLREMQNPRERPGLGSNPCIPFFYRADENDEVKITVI

Variants of: B1
Details: with hook2_human HOOK2, Q96ED9

Effect of a mutation on the interaction, with no effect:
V109D
I170V
K247E
R319H
V570M
A652T
R672H

Variants of: B2
Details: with ctsr1_human CATSPER1, Q8NEC5

Effect of a mutation on the interaction, with no effect:
R74Q
A115T

Variants of: B3
Details: with goga2_human GOLGA2, Q08379

Effect of a mutation on the interaction, with no effect:
R613Q
M351V

Source: IntAct's records for PubMed 31515488
